According to IntAct's records for PubMed 29128334:

B1: Serine/threonine-protein kinase PINK1, mitochondrial (Homo sapiens), Q9BXM7 (parent)
chain: MAVRQALGRGLQLGRALLLRFTGKPGRAYGLGRPGPAAGCVRGERPGWAAGPGAEPRRVGLGLPNRLRFFRQSVAGLAARLQRQFVVRAWGCAGPCGRAVFLAFGLGLGLIEEKQAESRRAVSACQEIQAIFTQKSKPGPDPLDTRRLQGFRLEEYLIGQSIGKGCSAAVYEATMPTLPQNLEVTKSTGLLPGRGPGTSAPGEGQERAPGAPAFPLAIKMMWNISAGSSSEAILNTMSQELVPASRVALAGEYGAVTYRKSKRGPKQLAPHPNIIRVLRAFTSSVPLLPGALVDYPDVLPSRLHPEGLGHGRTLFLVMKNYPCTLRQYLCVNTPSPRLAAMMLLQLLEGVDHLVQQGIAHRDLKSDNILVELDPDGCPWLVIADFGCCLADESIGLQLPFSSWYVDRGGNGCLMAPEVSTARPGPRAVIDYSKADAWAVGAIAYEIFGLVNPFYGQGKAHLESRSYQEAQLPALPESVPPDVRQLVRALLQREASKRPSARVAANVLHLSLWGEHILALKNLKLDKMVGWLLQQSAATLLANRLTEKCCVETKMKMLFLANLECETLCQAALLLCSWRAAL
partner: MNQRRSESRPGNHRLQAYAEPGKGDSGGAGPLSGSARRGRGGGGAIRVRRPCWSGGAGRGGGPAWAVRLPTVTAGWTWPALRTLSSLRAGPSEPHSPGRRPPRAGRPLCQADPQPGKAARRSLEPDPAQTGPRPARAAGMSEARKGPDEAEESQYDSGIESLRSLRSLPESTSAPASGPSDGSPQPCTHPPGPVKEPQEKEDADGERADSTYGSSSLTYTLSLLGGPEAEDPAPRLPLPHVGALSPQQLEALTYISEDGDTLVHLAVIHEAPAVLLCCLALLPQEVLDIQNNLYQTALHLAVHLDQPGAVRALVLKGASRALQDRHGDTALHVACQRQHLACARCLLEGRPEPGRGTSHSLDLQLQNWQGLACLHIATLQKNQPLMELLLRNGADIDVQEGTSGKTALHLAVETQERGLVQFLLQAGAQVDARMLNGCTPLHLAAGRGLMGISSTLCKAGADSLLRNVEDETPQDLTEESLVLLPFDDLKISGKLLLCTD
B2: Peroxiredoxin-5, mitochondrial (Homo sapiens), P30044 (parent)
chain: MGLAGVCALRRSAGYILVGGAGGQSAAAAARRYSEGEWASGGVRSFSRAAAAMAPIKVGDAIPAVEVFEGEPGNKVNLAELFKGKKGVLFGVPGAFTPGCSKTHLPGFVEQAEALKAKGVQVVACLSVNDAFVTGEWGRAHKAEGKVRLLADPTGAFGKETDLLLDDSLVSIFGNRRLKRFSMVVQDGIVKALNVEPDGTGLTCSLAPNIISQL
B3: Dihydrolipoyl dehydrogenase, mitochondrial (Homo sapiens), P09622 (parent)
chain: MQSWSRVYCSLAKRGHFNRISHGLQGLSAVPLRTYADQPIDADVTVIGSGPGGYVAAIKAAQLGFKTVCIEKNETLGGTCLNVGCIPSKALLNNSHYYHMAHGKDFASRGIEMSEVRLNLDKMMEQKSTAVKALTGGIAHLFKQNKVVHVNGYGKITGKNQVTATKADGGTQVIDTKNILIATGSEVTPFPGITIDEDTIVSSTGALSLKKVPEKMVVIGAGVIGVELGSVWQRLGADVTAVEFLGHVGGVGIDMEISKNFQRILQKQGFKFKLNTKVTGATKKSDGKIDVSIEAASGGKAEVITCDVLLVCIGRRPFTKNLGLEELGIELDPRGRIPVNTRFQTKIPNIYAIGDVVAGPMLAHKAEDEGIICVEGMAGGAVHIDYNCVPSVIYTHPEVAWVGKSEEQLKEEGIEYKVGKFPFAANSRAKTNADTDGMVKILGQKSTDRVLGAHILGPGAGEMVNEAALALEYGASCEDIARVCHAHPTLSEAFREANLAASFGKSINF
partner: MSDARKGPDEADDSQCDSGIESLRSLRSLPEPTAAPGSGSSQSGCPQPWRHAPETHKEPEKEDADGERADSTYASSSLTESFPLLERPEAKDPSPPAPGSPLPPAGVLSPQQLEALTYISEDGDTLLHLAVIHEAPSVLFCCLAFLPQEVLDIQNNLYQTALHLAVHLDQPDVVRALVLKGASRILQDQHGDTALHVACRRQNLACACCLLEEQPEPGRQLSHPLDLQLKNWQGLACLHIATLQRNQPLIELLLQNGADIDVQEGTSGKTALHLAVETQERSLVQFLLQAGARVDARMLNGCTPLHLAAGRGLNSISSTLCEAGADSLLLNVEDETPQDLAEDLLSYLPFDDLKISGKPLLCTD

Variants of: B1
Conditions: with ikbe_human NFKBIE

Variant | effect of a mutation on the interaction
MAVRQALGRGLQLGRALLLRFTGKPGRAYGLGRPGPAAGCVRGERPGWAAGPGAEPRRVGLGLPNRLRFFRQSVAGLAARLQRQFVVRAWGCAGPCGRAVFLAFGLGLGLIEEKQAESRRAVSACQEIQAIFTQKSKPGPDPLDTRRLQGFRLEEYLIGQSIGKGCSPAVYEATMPTLPQNLEVTKSTGLLPGRGPGTSAPGEGQERAPGAPAFPLAIKMMWNISAGSSSEAILNTMSQELVPASRVALAGEYGAVTYRKSKRGPKQLAPHPNIIRVLRAFTSSVPLLPGALVDYPDVLPSRLHPEGLGHGRTLFLVMKNYPCTLRQYLCVNTPSPRLAAMMLLQLLEGVDHLVQQGIAHRDLKSDNILVELDPDGCPWLVIADFGCCLADESIGLQLPFSSWYVDRGGNGCLMAPEVSTARPGPRAVIDYSKADAWAVGAIAYEIFGLVNPFYGQGKAHLESRSYQEAQLPALPESVPPDVRQLVRALLQREASKRPSARVAANVLHLSLWGEHILALKNLKLDKMVGWLLQQSAATLLANRLTEKCCVETKMKMLFLANLECETLCQAALLLCSWRAAL [A168P] | disrupting interaction strength

Variants of: B2
Conditions: with sodc_human SOD1, P00441
Sequence of sodc_human SOD1, P00441 (P00441 whole entry): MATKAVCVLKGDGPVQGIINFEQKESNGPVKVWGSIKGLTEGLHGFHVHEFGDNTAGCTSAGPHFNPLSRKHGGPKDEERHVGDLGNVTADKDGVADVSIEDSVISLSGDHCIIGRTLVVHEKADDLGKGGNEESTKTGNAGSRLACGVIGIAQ

Variant | effect of a mutation on the interaction
MGLAGVCALRRSAGYILVGGAGGQSAAAAARRYSEGEWASGGVRSFSRAAAAMAPIKVGDAIPAVEVFEGEPGNKVNLAELFRGKKGVLFGVPGAFTPGCSKTHLPGFVEQAEALKAKGVQVVACLSVNDAFVTGEWGRAHKAEGKVRLLADPTGAFGKETDLLLDDSLVSIFGNRRLKRFSMVVQDGIVKALNVEPDGTGLTCSLAPNIISQL [K83R] | with no effect
MGLAGVCALRRSAGYILVGGAGGQSAAAAARRYSEGEWASGGVRSFSRAAAAMAPIKVGDAIPAVEVFEGEPGNKVNLAELFKGRKGVLFGVPGAFTPGCSKTHLPGFVEQAEALKAKGVQVVACLSVNDAFVTGEWGRAHKAEGKVRLLADPTGAFGKETDLLLDDSLVSIFGNRRLKRFSMVVQDGIVKALNVEPDGTGLTCSLAPNIISQL [K85R] | disrupting interaction strength
MGLAGVCALRRSAGYILVGGAGGQSAAAAARRYSEGEWASGGVRSFSRAAAAMAPIKVGDAIPAVEVFEGEPGNKVNLAKLFKGKKGVLFGVPGAFTPGCSKTHLPGFVEQAEALKAKGVQVVACLSVNDAFVTGEWGRAHKAEGKVRLLADPTGAFGKETDLLLDDSLVSIFGNRRLKRFSMVVQDGIVKALNVEPDGTGLTCSLAPNIISQL [E80K] | with no effect

Variants of: B3
Conditions: with ikbe_mouse Nfkbie

Variant | effect of a mutation on the interaction
MQSWSRVYCSLAKRGHFNRISHGLQGLSAVPLRTYADQPIDADVTVIGSGPGGYVAAIKAAQLGFKTVCIEKNETLGGTCLNVGCIPSKALLNNSHYYHMAHGKDFASRGIEMSEVRLNLDKMMEQKSTAVKALTGGIAHLFKQNKVVHVNGYGKITGKNQVTATKADGGTQVIDTKNILIATGSEVTPFPGITIDEDTIVSSTGALSLKKVPEKMVVIGAGVIGVELGSVWQRLGADVTAVEFLGHVGGVGIDMEISKNFQRILQKQGFKFKLNTKVTGATKKSDGKIDVSIEAASGGKAEVITCDVLLVCIGRRPFTKNLGLEELGIELDPRGRIPVNTRFQTKIPNIYAIGDVVAGPMLAHKAEDEGIICVEGMAGGAVHIDYNCVPSVIYTHPEVAWVGKSEEQLKEEGIEYKVGKFPFAANSRAKTNADTDGMVKILGQKSTDRVLGAHILGPGAGEMVNEAALALEYGASCEDIARVCHAHPTLAEAFREANLAASFGKSINF [S491A] | disrupting interaction strength
